Tests used:
[1] = Evaluation of adsorbability with respect to cell culture surface (OPA fluorescence); format: physicochemical; conditions: FIG. 1; for adsorbability with respect to the plate: 0 to 200 pmol/cm^2 added, 2 hours at 37° C., washed twice with PBS
Description: Each of the polypeptides of RCP-1 to RCP-11 and RCP-21 to RCP-26 obtained as above was diluted with a predetermined buffer such that they could be added to wells at a predetermined final concentration of 0 pmol/cm^2 to 200 pmol/cm^2. Thereafter, each of the polypeptides was added in an amount of 64 μL to a plasma-treated 96-well plate made of polystyrene (Tissue Culture-Treated, Falcon). Each of the polypeptides was allowed to adsorb onto the plate by being incubated for 2 hours at 37° C., and then the wells were washed twice with PBS, thereby obtaining surfaces coated with each of the polypeptides of RCP-1 to RCP-11 and RCP-21 to RCP-26.
Among the surfaces coated with each of the polypeptides obtained as above, the surfaces coated with RCP-1 and RCP-21 to RCP-26 were applied with 64 μL of a borate buffer and 64 μL of 1 N NaOH, followed by incubation for 24 hours at 80° C. and 100% humidity. After the resultant was air-cooled, 75 μL of a borate buffer was added to each well, and 50 μL of a reaction solution obtained by mixing OPA (o-phthalaldehyde: Wako Pure Chemical Industries, Ltd./methanol solution (160 mg/ml)) with N-acetyl-L-cysteine (NAC: Wako Pure Chemical Industries, Ltd.)/borate buffer solution (2 mg/ml) at a ratio of 1:100 (mass ratio) was further added thereto. After incubation for 30 minutes at 40° C., the fluorescence intensity thereof was measured by using an Envision Multilabel Counter (PerkinElmer Inc.) (excitation 355 nm/fluorescence 486 nm). A calibration curve was separately prepared from each of the polypeptide solutions so as to calculate the amount of the polypeptide adsorbed. In FIG. 1, a black rhombus indicates RCP-1, a black square indicates RCP-21, a black triangle indicates RCP-22, a black circle indicates RCP-23, a white rhombus indicates RCP-24, a white square indicates RCP-25, and a white triangle indicates RCP-26.

human iPS cells ("Tic") = assay: Cell adhesiveness evaluation 1 (ALP activity of adhesive iPS cells); format: cell-based; conditions: 30,000 cells/well, 24 hours, n=3
Description: The cell adhesiveness of human iPS cells (“Tic”: Cell No. JCRB 1331: from National Institute of Biomedical Innovation. [567-0085, 7-6-8 Asagi Saito Ibaraki-City Osaka]) with respect to the aforementioned polypeptides was evaluated in the following manner.
As feeder cells for retaining the human iPS cells, EmbryoMax (registered trademark) (early mouse embryonic fibroblasts: resistant to hygromycin, treated with mitomycin C, derived from C57/BL6, third passage) (Millipore Corporation) was used. By using DMEM (Invitrogen) and a 10% (v/v) fetal bovine serum medium, the feeder cells were cultured for 24 hours and attached to a T25 flask (Corning Incorporated). As a medium for the human iPS cells, the one obtained by adding FGF-2 (Sigma-Aldrich Co, LLC.) to a medium composed as shown in Table 6 at a final concentration of 10 ng/ml was used.
By using the aforementioned medium, the human iPS cells were retained and cultured in a 5% (v/v, the same unit will be used hereinafter) CO2 incubator at 37° C. Except for the day after the seeding of the iPS cells, the medium was replaced every day. The subculture operation was performed by exfoliating the cells by using Dispase II (neutral protease Grade II, Roche) and separating the cells in an appropriate size by a pipetting operation.
The iPS cells cultured as described above were treated with TrypLE Select (Invitrogen) for 5 minutes at 37° C. and separated into a single cell. After being subjected to centrifugation for 2 minutes at 300 rpm, the cells were collected and suspended in TeSR2 (a medium not containing a heterogeneous animal-derived component and a serum component, STEMCELL Technologies.) containing Y-27362 ((R)-(+)-trans-N-(4-pyridyl)-4-(1-aminoethyl)-cyclohexane carboxamide.2HCl.H2O, an Rho binding kinase inhibitor, Wako Pure Chemical Industries, Ltd.) at a final concentration of 10 μM.
Each of RCP-1 to RCP-11, RCP-21, RCP-25, and RCP-26 as control, human vitronectin (extracted from human serum, BD Biosciences), and recombinant laminin (rLaminin-5: Oriental Yeast Co., ltd. and Human Recombinant Laminin-511: BIOLAMINA AB) was added to and suspended in a predetermined buffer (a dialysis buffer used in <GRAVY value and aggregation characteristics> described above for RCP-1 to RCP-11, and PBS for RCP-21, RCP-25, human vitronectin, and recombinant laminin) at the concentration shown in Table 7, thereby preparing samples 1 to 17. The samples were added to the respective wells of a 96-well plate and adsorbed onto the plate by being held for 2 hours at 37° C.
Into the respective wells of the 96-well plate treated with the peptides, iPS cells were seeded at a cell density of 30,000 cells/well. After the cells were cultured for 24 hours, the nonadhesive cells were washed off with PBS, and only the adhesive cells were immobilized by using 4% (v/v) paraformaldehyde (Wako Pure Chemical Industries, Ltd.). By using an Attophos (registered trademark) AP Fluorescent Substrate System (Promega Corporation), the ALP activity was calculated, and from the calibration curve, the number of undifferentiated iPS cells having the ALP activity was calculated. In Table 7, the cell adhesion rate is expressed as a ratio calculated by regarding the cell adhesion rate obtained from the sample 15 using natural vitronectin as being 100%. n=3.

iPS cells [2] = assay: Evaluation of maintenance of undifferentiated state (reference examples); format: cell-based, human
Description: iPS cells collected in the same manner as in <Cell adhesiveness evaluation 1> were suspended in TeSR2. The iPS cells were seeded into 6-well plate (Tissue culture-treated, Falcon), onto which each of the samples 1, 2, 5, 6, and 7 used in <Cell adhesiveness evaluation 1> was adsorbed in the same manner as in <Cell adhesiveness evaluation 1>, and cultured in a CO2 incubator at 37° C. Except for the day after the seeding, the medium was replaced every day. In the same method as described above, the cells were subcultured every six days.
After being cultured for 1 month under the conditions described above, the cells were immobilized using 4% paraformaldehyde and treated with 1% Triton-X/PBS so as to enhance the membrane permeability. After the cells were subjected to a blocking treatment using an Image IT Signal Enhancer (Invitrogen), an anti-human NANOG antibody (AF 1997, R&D Systems, Inc.), an Alexa Fluor 555 binding rabbit anti-goat IgG antibody (Invitrogen), and DAPI (4′,6-diamidino-2-phenylindole, Dojindo Molecular Technologies, Inc.) were added thereto for labeling, and the cells were imaged using a fluorescence microscope.
FIGS. 3A and 4A show the iPS cells cultured on RCP-1; FIGS. 3B and 4B show the iPS cells cultured on RCP-11; FIGS. 3C and 4C show the iPS cells cultured on natural human vitronectin; FIGS. 3D and 4D show the iPS cells cultured on rLaminin-5; and FIGS. 3E and 4E show the iPS cells cultured on rLaminin-511. The scale bar in the images indicates […]. In FIGS. 3A to 3E, the images on the left side are full images of the colony, and the images on the right side are magnified images. In FIGS. 4A to 4E, the images on the left side are images of the cells stained with DAPI, and the images on the right side are images of the cells stained with an anti-NANOG antibody. The scale bar in FIGS. 3A to 4E indicates 200 μm.

iPS cells [3] = assay: Cell adhesiveness evaluation 3 (RCP-1 added amount); format: cell-based, human; conditions: added amount 130 pmol/cm^2; this surface = 100%; n=3
Description: The cell adhesiveness was evaluated in the same manner as in <Cell adhesiveness evaluation 1>, except that RCP-1 was used after the concentration thereof was adjusted to 125 pmol/cm^2 to 1,000 pmol/cm^2 by using PBS. In Table 10, the cell adhesion rate is expressed as a ratio calculated by regarding a cell adhesion rate with respect to the cell culture surface, onto which natural vitronectin is adsorbed at a concentration of 130 pmol/cm^2, as being 100%. n=3.

[4] = added amount 200 pmol/cm^2, natural vitronectin (sample 15) = 100%

For “RCP-24: comparative polypeptide, SEQ ID NO: 29; vitronectin positions 1-55 (GPLGDQESCKGRCTEGFNVDKKCQCDELCSYYQSCCTDYTAECKPQVTRGDVFTMPEDE; Vitronectin-derived Recombinant Protein (RCP-24)) [reference compound]”, the “amount adsorbed onto the plate as fraction of the amount of polypeptides containing SEQ ID NO: 2” value [1] was “about ¼”.

B1: RCP-26: comparative polypeptide, SEQ ID NO: 31; vitronectin positions 269-459 (protein)
chain: GPLGPSQEECEGSSLSAVFEHFAMMQRDSWEDIFELLFWGRTSAGTRQPQFISRDWHGVPGQVDAAMAGRIYISGMAPRPSLAKKQRFRHRNRKGYRSQRGHSRGRNQNSRRPSRATWLSLFSSEESNLGANNYDDYRMDWLVPATCEPIQSVFFFSGDKYYRVNLRTRRVDTVDPPYPRSIAQYWLGCPAPGHL
modifications: Vitronectin-derived Recombinant Protein (RCP-26)
For B1, the “adsorbability with respect to the plate” value [1] was “excellent adsorbability” and the “Cell adhesion rate (%)” value (human iPS cells ("Tic"); [4]) was 9.4 ± 2.9%.

B2: Natural vitronectin: human vitronectin (extracted from human serum, BD Biosciences) (protein, listed as Homo sapiens)
chain: DQESCKGRCTEGFNVDKKCQCDELCSYYQSCCTDYTAECKPQVTRGDVFTMPEDEYTVYDDGEEKNNATVHEQVGGPSLTSDLQAQSKGNPEQTPVLKPEEEAPAPEVGASKPEGIDSRPETLHPGRPQPPAEEELCSGKPFDAFTDLKNGSLFAFRGQYCYELDEKAVRPGYPKLIRDVWGIEGPIDAAFTRINCQGKTYLFKGSQYWRFEDGVLDPDYPRNISDGFDGIPDNVDAALALPAHSYSGRERVYFFKGKQYWEYQFQHQPSQEECEGSSLSAVFEHFAMMQRDSWEDIFELLFWGRTSAGTRQPQFISRDWHGVPGQVDAAMAGRIYISGMAPRPSLAKKQRFRHRNRKGYRSQRGHSRGRNQNSRRPSRATWLSLFSSEESNLGANNYDDYRMDWLVPATCEPIQSVFFFSGDKYYRVNLRTRRVDTVDPPYPRSIAQYWLGCPAPGHL
modifications: glycosylated
In the case of B2, the “form of iPS cell colony” value (iPS cells [2]; TeSR2, subcultured every six days, FIGS. 3A to 3E) is reported as “form specific to undifferentiated cells”, the “NANOG expression” value (iPS cells [2]; cultured for 1 month in TeSR2, anti-NANOG staining, FIGS. 4A to 4E) is reported as “strongly expressed NANOG in the entirety of the colony” and the “Cell adhesion rate (%)” value (iPS cells [3]) is reported as 100 ± 5.5%. For the same molecule, the “Cell adhesion rate (%)” value (human iPS cells ("Tic"); added amount 130 pmol/cm^2, this sample = 100%) was 100 ± 5.5%.

B3: RCP-25: comparative polypeptide, SEQ ID NO: 30; vitronectin positions 56-459 (protein)
chain: GPLGYTVYDDGEEKNNATVHEQVGGPSLTSDLQAQSKGNPEQTPVLKPEEEAPAPEVGASKPEGIDSRPETLHPGRPQPPAEEELCSGKPFDAFTDLKNGSLFAFRGQYCYELDEKAVRPGYPKLIRDVWGIEGPIDAAFTRINCQGKTYLFKGSQYWRFEDGVLDPDYPRNISDGFDGIPDNVDAALALPAHSYSGRERVYFFKGKQYWEYQFQHQPSQEECEGSSLSAVFEHFAMMQRDSWEDIFELLFWGRTSAGTRQPQFISRDWHGVPGQVDAAMAGRIYISGMAPRPSLAKKQRFRHRNRKGYRSQRGHSRGRNQNSRRPSRATWLSLFSSEESNLGANNYDDYRMDWLVPATCEPIQSVFFFSGDKYYRVNLRTRRVDTVDPPYPRSIAQYWLGCPAPGHL
modifications: Vitronectin-derived Recombinant Protein (RCP-25)
With B3 the “adsorbability with respect to the plate” value [1] was “excellent adsorbability” and the “Cell adhesion rate (%)” value (human iPS cells ("Tic"); [4]) was 13.2 ± 3.4%.

B4: RCP-23: comparative polypeptide, SEQ ID NO: 28; vitronectin positions 1-55, 56-129 (protein)
chain: GPLGDQESCKGRCTEGFNVDKKCQCDELCSYYQSCCTDYTAECKPQVTRGDVFTMPEDEYTVYDDGEEKNNATVHEQVGGPSLTSDLQAQSKGNPEQTPVLKPEEEAPAPEVGASKPEGIDSRPETLHPGRPQP
modifications: Vitronectin-derived Recombinant Protein (RCP-23)
With B4 the “amount adsorbed onto the plate as fraction of the amount of polypeptides containing SEQ ID NO: 2” value [1] was “about ¼”.
